Test results as given in the DeepSol protein solubility set.

Experiment: soluble on expression in E. coli; label from the status in PepcDB or PDB records

| Sequence | soluble on expression in E. coli |
| --- | --- |
| MGIFSRFADIVNSNISALLDKAEDPEKMIRLIIQEMEDTLVEVRTNSAKAIADKKELARKVEMLEEQIGEWGQKASLALVKEREDLARAALIEKQKLEQVVKGLHTEQTLVEETINKLTGEIGKLENKIAETRAKQQALAIRNQTASNRRDVQKHLHTSRTNEAMAKFDQYSRKIDEMEAEADLYAQTGNAKSLEQEFAELQAQDEIEKELAKLKEQMSSQDKLEHHHHHH | soluble |
| MSSSGVYTCNSCVLTFDSSDEQRAHMKSDWHRYNLKRRVAQLPPISFETFDSKVSAAAASTSKSAEKEKPVTKKELKRREKQALLEKKKKLLEIARANMLENMQKSQEGNTPDLSKLSLQENEENKEKEEPKKEEPEQLTEEEMAERVMQENVRNRVDIPLEQCLFCEHNKHFKDVEENLEHMFRTHGFYIPEQKYLVDKIGLVKYMSEKIGLGNICIVCNYQGRTLTAVRQHMLAKRHCKIPYESEDERLEISEFYDFTSSYANFNSNTTPDNEDDWEDVGSDEAGSDDEDLPQEYLYNDGIELHLPTGIKVGHRSLQRYYKQDLKPEVILTEGQGTLVAAETRSFLPAFDKKGVQTQQRVWQTERFDKKRLDKRSAKFVNNQPHYRDQLLQ | soluble |
| MGSDKIHHHHHHMERMSIKYFVNNNSLGPDRNISSVGFEEIPPNTSYPTLNHSAGYYFNPDKGRILTEYQLIYITEGEGVLETRSGGVFTIKRGMIFVLFPGEWHTYYPNYQTGWSHYWIGFCGPEVDSWMTNEYCSKESPVFKVGINDEIVSLFRKAIDVANEEPTLYQRVLSGLVTYLVALMCSIDKNLQVENDDFSSKIDYACVLMKELIDQPVSMQEIAKKAGMGYSLFRKLFKEQKNYAPVQYFQNLKIQKAIELLTTTTIPVKEIAYRLDFESPAYFSARFKKQTGKSPIEYREEFRIK | not soluble |
| MDPDLWEETGHNSELLLRLLPAARLTAVARDPQYTGRLEQVWQQYRTYLGAPVNRGNLPGLESNQVIAYFSAEFGLSEALPIYAGGLGFLAGDHLKSASDLGLPLVGVGLLYREGYFRQRLDRRGQQREVYSRYDFYQLPLELERRADGSPLEVQVNFPDPDRQVRARVWRARVGRLNLYLLDSDCPGNLEADRLITDRLYGGDLEKRIQQEILLGIGGVRALAALGINATIFHLNEGHSAFLGLERIRQLQARYGLDLASARELATCSNIFTTHTPVPAGIDVFPPYLMDKYFTEYYQSLGLSRHEFLALGRQDPNNQQEPFNMAVLALRLSAWANGVSQLHGQTARRMWQVIWPGVPVAEIPIGAITNGVHTTSWVGEKMAALYDRYLGTAWRELEHHHHHH | not soluble |
| MNRFIMANSQQCLGCHACEVACVMAHNDERHVLTSQRYQPRITVIKHQHQRSAVTCHHCEDAPCARSCPNGAIAHINDSVQVNAQKCIGCKSCVVACPFGTMQMVLTPVAPNQFKASAHKCDLCQGREQGPACVENCPADALQLVTEDSLTRLAKTRRLRTARQEIRPWHTVDTQHSGAASSKAERMQATPPRGEPDKLAIEARKTTFEEIYLPFRAAQAEREASRCLTCGEHSICEWTCPLHNHIPQWIELVKAGDIDAAVELSHQTNCLPEITGRVCPQDRLCEGACTLRDEYGAVTIGNIERYISDRALSKGWRPDLSDVQKSDKRVAIIGAGPAGLACADVLARHGVSATVYDRHPEIGGLLTFGIPAFKLDKSLLARRREIFSAMGIRFELNCEVGKDISLETLLESYDAVFVGVGTYRSMKADLPNEDAPGVYDALPFLIANTKQVMGLPALPDEPFIDTAGLNVVVLGGGDTAMDCVRTALRHGAANVTCAYRRDEANMPGSKKEVKNAREEGANFEFNVQPVELVLDTHGRASGIRFLRTRLGEPDGQGRRRPVPVPDSEFVMPADAVIMAFGFHPHGMSWLESHGVKVDNWGRIAASVESEFRYQTSNPKIFAGGDAVRGADLVVTAMAEGRHAAQGILDWLAK | not soluble |
| MIKNRQEILFLYDVTDANPNGDPLDENKPRIDEETGINIVTDVRLKRTIRDYLYDYKGFDGSNGKDIFVREIESEKGGIKDGKARAKDFNENVDEILQKAIDIRLFGGVIPLDKASITFTGPVQFNMGRSLNKVNLKHIKGTGAFASGEGKAQKTFREEYIVPYSIIAFHGIINENAAKRTGLTDEDVDLLDDAMWNGTKNLITRSKMGHMPRLMLRVVYKPGENFFIGDLQNRISLNFDVEEEKIRSIKDFSIKLDELIDELANYGDKIEKVVFVADKNLRLSYKGREINLKDIKDIRFEEKTF | soluble |
| LQVYTSDNQLIAEYGGKLSVPVEYNQIPPTFIHAFLAAEDSSFFEHSGISFKGLGRALSETVTGSNVQTGGSTITMQVAKNYYLSPERTLKRKLTEIFLARKIEQNLTKQEILSLYVNKIFLGKNAYGIAAAAKIYYNKTLDQLSIAEMAMISGLPKAPSKYNPVVNP | not soluble |
| MGSDKIHHHHHHMSEFDAIFVGAGHNSLACAAHLALKGWKTGIFERSSTIGGAVQTREFTLPGFRHDFGAMNLSLFAGSAFHRKYANELKTQGLEFAPVADCFASAFPDGRWFGVSNDLEKTASRMAAFSAADAATWRKLVAAFPGEAEHLFRLLGSPMSARALAGTAWNLWRKKGVAGALDTGRLLLSSPRTWLEETFESPYVRATLATWGMHLDFAPDIAGGAVFPYLESMANQSFGMVLGKGGADTIIRALAGMVTSAGGKIVTGAEVSEITVSNGKATGVRLTSGETHTATKAVIAGVAPKALTGTLLPGGSGNAGFDTAMKKFRYAPGTMMIHLALDELPGWRAGSELRQFAYVHLSPSLDAMSRTYQQAMAGMLPDEPVLVVGQPTAIDPSRAPQGKHVLWVQVRMLPAEITGDAGGKIAPAHWDQVKDAYAERVLDIIETYAPGLRSKILGRSVFSPIDLERENPNLVGGDQVCGSHHLAQNFLFRPARGYAGWNTPVGNLHLTGAATWPGAGTGAASGFMLAQQLGGR | not soluble |
| MSEAESCEETSKEHRIWKKNVPYLYDTVVTKEVEWPSLSVQWMPDVTKTENSDSSMHRMIHGTHTCGGVQNHLMISKFTITTDTPEFDDAKWDSEREEFGGYGEGSAAKWDTEIKINHPGEVHRARYMPHNPFIIASRGPSDDVYIFDYTKHPSEPKDTKFRPQLRLKGHEGEGYGMSWSNTREGHLLTAGDDGMICHWDINANQTISGQIVPQSKFKGHSSNAEDVSFHALHNFVFGSVGDDRKLNLWDLRQSKPQLTAVGHTAEVNCITFNPFSEYILATGSVDKTVALWDMRNMRKKMYTLKHHNDEIFQVSFSPHYETVLASSGSDDRVIVWDISKIQDPSSSSAASSDSVPPEVIFIHAGHTGKVADFSWNPNRPWTICSSDEFNALQVWEVSNSLVSSEKWETEMI | not soluble |
| STNPKPQRKTKRNTNRRPQDVKFPGGGQIVGGVYLLPRRGPRLG | soluble |
| MHHHHHHAMGTKKSAAEASKKPRQKRTATKQYNVTQAFGRRGPEQTQGNFGDQDLIRQGTDYKHWPQIAQFAPSASAFFGMSRIGMEVTPSGTWLTYHGAIKLDDKDPQFKDNVILLNKHIDAYKTFP | soluble |
| MNRYDRAITIFSPDGHLFQVEYAQEAVKKGSTAVGVRGKDCIVIGVEKKSIPALQDDRTIRKIHMIDDHVMLAFAGLSADARVLVDRARIECQSYKLTLEDPVTVAYISRYIANTKQRFTQSPGRRPFGISMLIGGFDHDGTPRLFKTEPSGAYYEYVANATGRGEKPVREYLEEQYSEENTVDEATTLKLVVKSLAQVVPPGSQNIEIAVMKKVNDELQQRVLSTEEIEALLKVVETERVAAEAEEAASKKK | not soluble |
| MGSDKIHHHHHHMAGGVSLKYILEQLAEERLGFLVNGHAMRQESQVGDLKVMERKKKLLEKRKVDIIKAKAKAVINHVRVEDDGTTCLSYTIHYEYVCKEQDDSLYIEEHIEERMAFLYDHILISDQEIAKKPAGFHEGTSIIDYSEAEEEREAFGRAFQYDRLGAVQYAEKFWNKRNPAYKNFSDNCTNFISQCLHAGGAPMRGHPNRGSGWWMKQSSWSYSWTVAHSMKMYLSNSKAGLRAVRVKSAEELMPGDVICYDFEGDGRFNHTTIVVAKDKGNMPLVNAQTYDSRMRYWSYEDSTAYTPSIRYAFFHIVDDTTKE | not soluble |
| MQWVKQLNVVFCTMLFSFSSYANLSDFKVATWNLQGSSAVNESKWNINVRQLLSGEQGADILMVQEAGSLPSSAVRTSRVIQHGGTPIEEYTWNLGTRSRPNMVYIYYSRLDVGANRVNLAIVSRRQADEAFIVHSDSSVLQSRPAVGIRIGTDVFFTVHALATGGSDAVSLIRNIFTTFTSSPSSPERRGYSWMVVGDFNRAPVNLEAALRQEPAVSENTIIIAPTEPTHRSGNILDYAILHDAHLPRREQARERIGASLMLNQLRSQITSDHFPVSFVHDR | soluble |
| TPDWRVSLRGSLAYNRNKVISLYYTDRLYTSETALTPDYEVGKAYNMLYGLKSLGINPITGLPVFQGADGSEISPTQNPARENFIVLGHSTPPYSGTFNLNFSYRNFDLDMDFYYVFGGIKPYNYSYVRSADSANKNAIQKQLENMWFHRGDEGKIYHSPFYISPANASLQQPNTETVGKSDYLKLAMLSLRYRVPHTFLEKNCHFIKYANIAFQASNLFMITPYKESDPETGSLAGAMQPVLTINLSLTF | not soluble |
| MSLKSGCSARQVCAGNTHFAVVTVEKELYTWVNMQGGTKLHGQLGHGDKASYRQPKHVEKLQGKAIHQVSCGDDFTVCVTDEGQLYAFGSDYYGCMGVDKVAGPEVLEPMQLNFFLSNPVEQVSCGDNHVVVLTRNKEVYSWGCGEYGRLGLDSEEDYYTPQKVDVPKALIIVAVQCGCDGTFLLTQSGKVLACGLNEFNKLGLNQCMSGIINHEAYHEVPYTTSFTLAKQLSFYKIRTIAPGKTHTAAIDERGRLLTFGCNKCGQLGVGNYKKRLGINLLGGPLGGKQVIRVSCGDEFTIAATDDNHIFAWGNGGNGRLAMTPTERPHGSDICTSWPRPIFGSLHHVPDLSCRGWHTILIVEKVLNSKTIRSNSSGLSIGTVFQSSSEGHHHHHH | not soluble |
| MIDIHNHILVDIDDGPKTIEKSIALLKQAKDEGVTSIVATPHHLHPRYDNTFQQVLVKLAELRTHPEVQALDIKLFPGQEIRITDSILKGLDNGSIQGINRSKYLLIEFPTGEVPHYTKQLFFEIQSRGYIPIIAHPERNRSIAKNPEILYELVANGALSQLTSSSLVGGFGKNIQKLSLQFIECNLAHFVASDAHSCDQRPFLMQELFHNHKLKKYSNDIEALLRNASSVINDNFVYLDRPTKPGKVKSFLKWF | not soluble |
| QQGNPNLSSPQPILDTIYKLLSEQEQTLVQMIHEQSLLLNRLPPTLDENSLAPLKSLSQKQITLSGQMNTEMSALDATKKGMILEPTDLAKLFALKQDLQIQFKQLSLLHNEIQSILNPQHSAPKPNVALVLKSQPFPVVISKGKQLGENQLVVLVLTGARSNFHINGPVKATMICDSHPTNKNNPTTPLEMDSQPIYPATLTAHFPLKFLAGTRKCSVNLKFGVNIRDLDNVTTTVESDASNPFVVITNECQWEGSAGVLLKKDAFDGQLEITWAQFINTLQRHFLIATKQDPVRPKRPLSSYDLKYIQTHFFGNRSIIHQQDFDKFWVWFGKSMQTLRYQRHISTLWQEGIIYGYMGRQEVNDALQNQDPGTFIIRFSERNPGQFGIAYIGVEMPARIKHYLVQPNDTAAAKKTFPDFLSEHSQFVNLLQWTKDTNGAPRFLKLHKDTALGSFAPKRTAPVPVGGYEPLNS | soluble |
| MSMTVTTYLPIEAIKQQFCQSLDEQNTLILSAPPGAGKSTCLPLWLLTLPSLANKKIYLLQPRRLAVKNIATFLAAQLKEKVGETVGYRLRNDSKTSTSTRLEVITEGILTQIIQKDAELLGTALVVFDEFHERSLQGDLAFALTREVQTELRDDLKILLMSA | not soluble |
| TPGVEKRVIWAPGGYERRTPYALVYLHGFSATSEEIRPVPDHIAQALGANLVFTRLQGHGRGDDAMAQGSASGWMRDTAEALAAGRAVGERVIVIATSTGATLAAAAALDPEMSADVAAMILVSPNFGVNDPLAFVPTLPGARYWLPRLMGDARDVTGPDADKNTYWTTRYSWSALVPMSVLVQAVVSLDFAQARVPALFWFSDQDRVVRADLTRALAGRWGGPVRVEAVTMGPGDDPSSHVIAGDIMSPGQTDIAVAGMLAWLREQGI | not soluble |
